Test results published in patent US20210401931A1, “METHODS AND MATERIALS FOR TREATING CANCER” (Mayo Foundation for Medical Education and Research, priority 2018, published 2021).
Blank lines part the entries; values can stand above or below the molecule they belong to.

Experiments:
NFκB target genes = test: Expression of NFκB target genes in PC-3 cells (RNA-seq, RT-qPCR); assay type: cell-based, human; details: PC-3 cells, IKK-16 5 μM or ACHP 20 μM, 24 hours
Procedure: FIGS. 4A-G. RB globally regulates NFkB transcriptional program in cells. […] (F, G) PC-3 cell were treated with or without palbociclib (5 μM) for 24 hours or PC-3 cells were infected with lentivirus expressing control shRNA or RB-specific shRNA following puromycin selection after 48 hours infection. Cells were harvested for RT-qPCR (F) and ChIP-qPCR (G) analysis of p65 binding at the promotor of PD-L1, GADD45B, NR4A2, and CD83. All data were shown as mean values±SD (n=3). * P<0.05, ** P<0.01, ***P<0.001.
FIGS. 16A-K. Mutual exclusivity of PTEN and MAP3K7 gene deletion in human cancers and CDK4/6 inhibition-mediated blockage of MAP3K7 deficiency-induced death of PTEN-null cells. (A) Genetic alterations of MAP3K7 and PTEN genes in the TCGA prostate cancer dataset. (B) Genetic alterations of MAP3K7 and PTEN genes in lymphoid neoplasm diffuse large B-cell lymphoma, stomach adenocarcinoma, pancreatic cancer, liver cancer, bladder urothelial carcinoma, and lung adenocarcinoma. (C-E) PC-3 cells were infected with lentivirus expressing control or MAP3K7-specific shRNAs. 72 hours after infection, cells were harvested for western blotting (C), cell growth assay (D), and colony formation assay (E). All data were shown as mean values±SD (n=3). ns, not significant, * P<0.05 comparing to the shControl group. (F-H) LNCaP-RF prostate cancer cells were infected with lentivirus expressing control or MAP3K7-specific shRNAs. 72 hours after infection, cells were harvested for western blotting (F), cell growth assay (G), and colony formation assay (H). All data are shown as mean values±SD (n=3). ns, not significant, * P<0.05 comparing to the shControl group. (I-K) PC-3 cells were infected with lentivirus expressing control, MAP3K7 or CHD1-specific shRNAs. 72 hours after infection, cells were treated with DMSO or palbociclib (5 μM). […]
FIGS. 17A-I. Negative regulation of MAP3K7-IKK-NFκB and CHD1-NFκB signaling by RB. […] 72 hours after infection and puromycin selection, cells were injected s.c. into the right flank of NSG mice, and tumor growth was measured for 21 days. […]

p65 = target: T1, p65 (Homo sapiens, UniProt Q04206); test: Co-IP of p65 by SFB-tagged RL peptide in 293T cells; assay type: binding; details: 48 hours after transfection
T1 construct: endogenous in cells; host or cells: 293T
T1 sequence (Q04206 whole entry): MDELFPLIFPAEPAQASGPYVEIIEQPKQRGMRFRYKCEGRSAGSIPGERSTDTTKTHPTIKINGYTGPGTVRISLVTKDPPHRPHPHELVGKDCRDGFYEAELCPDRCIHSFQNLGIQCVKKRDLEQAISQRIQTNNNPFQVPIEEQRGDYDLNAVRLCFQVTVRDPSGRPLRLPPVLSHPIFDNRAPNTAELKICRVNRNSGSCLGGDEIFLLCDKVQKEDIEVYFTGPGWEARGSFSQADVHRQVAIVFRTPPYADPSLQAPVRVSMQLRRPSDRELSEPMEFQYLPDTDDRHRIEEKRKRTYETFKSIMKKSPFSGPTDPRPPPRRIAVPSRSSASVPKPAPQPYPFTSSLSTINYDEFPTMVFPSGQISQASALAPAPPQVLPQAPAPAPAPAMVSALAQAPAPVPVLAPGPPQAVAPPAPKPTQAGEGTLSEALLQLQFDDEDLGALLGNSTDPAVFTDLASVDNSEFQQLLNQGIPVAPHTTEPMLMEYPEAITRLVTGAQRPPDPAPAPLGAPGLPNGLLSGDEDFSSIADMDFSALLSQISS
Procedure: FIGS. 10A-G. (A) Schematic diagram depicting a set of RB-N recombinant protein constructs. Western blot analysis of p65 proteins in PC-3 cells whole cell lysate pulled down by GST or GST-RB-N recombinant proteins. Stars indicate expected molecular weight. (B) Western blot analysis of in vitro transcribed and translated p65 proteins pulled down by GST or GST-RB recombinant proteins. Stars indicate expected molecular weight. (C) Western blot analysis of WCL and co-IP samples in 293T cells 48 h after transfected with indicated constructs. (D) Schematic diagram depicting an evolutionally conserved R-linker region in the N-terminal of RB. FIG. 10D discloses SEQ ID NOS 265 and 271-274, respectively, in order of appearance. (E) Western blot analysis of WCL and co-IP samples in 293T cells 48 hours after transfected with indicated constructs. (F) PC-3 cells were transfected with indicated plasmids. Western blot analysis of HA-RB proteins in PC-3 whole cell lysate pulled down by GST or GST-p65 recombinant proteins. Stars indicate expected molecular weight. (G) Schematic diagram depicting fully positively charged RB-N allows otherwise negatively charged by S249/T252 phosphorylation to bind to negatively charged 166FSLMV170 motif (SEQ ID NO: 286) in EID1. FIG. 10G discloses SEQ ID NOS 265-266 and 275, respectively, in order of appearance. […]

p65 NFκB protein [1] = target: T2, p65 NFκB protein (human, UniProt Q04206 1-551); test: in vitro protein binding assay with in vitro transcribed and translated p65 (FIG. 10A)
T2 construct: The same entry is used for endogenous p65 and for in vitro translated p65; which one stood in the assay is told under assay; also called endogenous p65; in vitro transcribed and translated p65 (pCMV4 p65)
T2 sequence (Q04206 whole entry): as above

p65 NFκB protein [2] = target: T2, p65 NFκB protein; test: co-IP from 293T cells transfected with SFB-tagged constructs (FIG. 10C)
[3] = target: T3, retinoblastoma protein RB (endogenous) (human, UniProt P06400 2-928); test: co-IP of endogenous proteins in PC-3 cells, western blot (FIG. 2A)
T3 construct: Endogenous protein of cell lysates, phosphorylation state as in the cells; also called RB1; endogenous RB
T3 sequence (looked up): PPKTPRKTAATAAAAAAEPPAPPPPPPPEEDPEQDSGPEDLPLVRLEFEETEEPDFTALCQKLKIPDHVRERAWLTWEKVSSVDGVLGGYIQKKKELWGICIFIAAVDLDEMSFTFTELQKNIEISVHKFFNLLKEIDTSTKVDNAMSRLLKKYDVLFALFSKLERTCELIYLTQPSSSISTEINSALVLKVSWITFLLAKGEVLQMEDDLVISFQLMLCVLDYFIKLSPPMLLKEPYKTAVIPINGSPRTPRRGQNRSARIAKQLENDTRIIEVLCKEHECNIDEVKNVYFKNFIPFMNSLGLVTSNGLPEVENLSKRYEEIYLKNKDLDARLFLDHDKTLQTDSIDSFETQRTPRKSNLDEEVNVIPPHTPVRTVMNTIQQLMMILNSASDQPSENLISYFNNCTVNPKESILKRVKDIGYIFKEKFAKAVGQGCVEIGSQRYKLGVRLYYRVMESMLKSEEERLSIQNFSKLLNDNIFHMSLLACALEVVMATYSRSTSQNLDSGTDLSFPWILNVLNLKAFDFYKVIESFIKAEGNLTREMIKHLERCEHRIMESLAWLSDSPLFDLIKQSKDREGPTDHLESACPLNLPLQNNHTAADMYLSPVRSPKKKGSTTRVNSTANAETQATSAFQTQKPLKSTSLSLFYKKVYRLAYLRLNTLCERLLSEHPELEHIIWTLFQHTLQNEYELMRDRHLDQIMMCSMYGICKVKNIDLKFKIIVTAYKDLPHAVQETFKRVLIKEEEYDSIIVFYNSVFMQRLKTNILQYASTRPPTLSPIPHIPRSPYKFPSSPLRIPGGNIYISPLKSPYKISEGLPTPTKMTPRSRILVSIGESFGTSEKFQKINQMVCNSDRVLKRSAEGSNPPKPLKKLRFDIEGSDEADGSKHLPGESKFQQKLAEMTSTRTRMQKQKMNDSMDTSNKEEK

p65 NFκB protein [4] = target: T2, p65 NFκB protein; test: GST pull down from PC-3 whole cell lysate, western blot
Procedure: Cells were lysed with IP buffer (50 mM Tris-HCl, pH 7.4, 150 mM NaCl, 1% Triton X-100, 1% sodium deoxycholate, and 1% protease inhibitor cocktails) on ice for more than 30 minutes. GST fusion proteins were immobilized on glutathione-Sepharose beads (GE Healthcare Lifesciences). After washing with lysis buffer, the beads were incubated with cell lysates overnight at 4° C. overnight. The beads were then washed six times with binding buffer and re-suspended in sample buffer. The bound proteins were subjected to western blotting analysis.

Molecule: N#Cc1c(C2CCNCC2)cc(-c2c(O)cccc2OCC2CC2)nc1N [ACHP]
NFκB target gene expression (NFκB target genes): decreased

Molecule: O=C(c1ccc(Nc2nccc(-c3cc4ccccc4s3)n2)cc1)N1CCC(N2CCCC2)CC1 [IKK-16]
NFκB target gene expression (NFκB target genes): decreased

B1: GST-RB-NΔ1 (N-terminal portion of RB-N, amino acids 1-266) (other, not shown: a dimerising Fc or GST; small tags and cut ends)
chain: MPPKTPRKTAATAAAAAAEPPAPPPPPPPEEDPEQDSGPEDLPLVRLEFEETEEPDFTALCQKLKIPDHVRERAWLTWEKVSSVDGVLGGYIQKKKELWGICIFIAAVDLDEMSFTFTELQKNIEISVHKFFNLLKEIDTSTKVDNAMSRLLKKYDVLFALFSKLERTCELIYLTQPSSSISTEINSALVLKVSWITFLLAKGEVLQMEDDLVISFQLMLCVLDYFIKLSPPMLLKEPYKTAVIPINGSPRTPRRGQNRSARIAKQ
binding result (p65 NFκB protein [1]): binds

B3: p50 subunit of NFκB (other, human, UniProt P19838 1-433, looked up)
chain: MAEDDPYLGRPEQMFHLDPSLTHTIFNPEVFQPQMALPTDGPYLQILEQPKQRGFRFRYVCEGPSHGGLPGASSEKNKKSYPQVKICNYVGPAKVIVQLVTNGKNIHLHAHSLVGKHCEDGICTVTAGPKDMVVGFANLGILHVTKKKVFETLEARMTEACIRGYNPGLLVHPDLAYLQAEGGGDRQLGDREKELIRQAALQQTKEMDLSVVRLMFTAFLPDSTGSFTRRLEPVVSDAIYDSKAPNASNLKIVRMDRTAGCVTGGEEIYLLCDKVQKDDIQIRFYEEEENGGVWEGFGDFSPTDVHRQFAIVFKTPKYKDINITKPASVFVQLRRKSDLETSEPKPFLYYPEIKDKEEVQRKRQKLMPNFSDSFGGGSGAGAGGGGMFGSGGGGGGTGSTGPGYSFPHYGFPTYGGITFHPGTTKSNAGMKHG
binding result [3]: no binding

More lines, now with the values ahead:

immunoprecipitation of p65 by SFB-tagged RL peptide (p65): largely diminished
Molecule: RL-S249A/T252A: unphosphorylable (phosphorylation-resistant) mutant of the RL peptide (NGAPRAPRRGQNRSARIAKQL; left off: small tags and cut ends) [reference compound]

binding result (p65 NFκB protein [2]): binds
B2: SFB-tagged RB-N (other, human, UniProt P06400 1-379, looked up, not shown: small tags and cut ends)
chain: MPPKTPRKTAATAAAAAAEPPAPPPPPPPEEDPEQDSGPEDLPLVRLEFEETEEPDFTALCQKLKIPDHVRERAWLTWEKVSSVDGVLGGYIQKKKELWGICIFIAAVDLDEMSFTFTELQKNIEISVHKFFNLLKEIDTSTKVDNAMSRLLKKYDVLFALFSKLERTCELIYLTQPSSSISTEINSALVLKVSWITFLLAKGEVLQMEDDLVISFQLMLCVLDYFIKLSPPMLLKEPYKTAVIPINGSPRTPRRGQNRSARIAKQLENDTRIIEVLCKEHECNIDEVKNVYFKNFIPFMNSLGLVTSNGLPEVENLSKRYEEIYLKNKDLDARLFLDHDKTLQTDSIDSFETQRTPRKSNLDEEVNVIPPHTPVRTVM
notes: Expressed in mammalian cells (293T, PANC-1, H1299, SK-Hep1)

binding result (p65 NFκB protein [4]): no binding
B4: GST-RB-M (other, human, UniProt P06400 380-792, looked up)
chain: NTIQQLMMILNSASDQPSENLISYFNNCTVNPKESILKRVKDIGYIFKEKFAKAVGQGCVEIGSQRYKLGVRLYYRVMESMLKSEEERLSIQNFSKLLNDNIFHMSLLACALEVVMATYSRSTSQNLDSGTDLSFPWILNVLNLKAFDFYKVIESFIKAEGNLTREMIKHLERCEHRIMESLAWLSDSPLFDLIKQSKDREGPTDHLESACPLNLPLQNNHTAADMYLSPVRSPKKKGSTTRVNSTANAETQATSAFQTQKPLKSTSLSLFYKKVYRLAYLRLNTLCERLLSEHPELEHIIWTLFQHTLQNEYELMRDRHLDQIMMCSMYGICKVKNIDLKFKIIVTAYKDLPHAVQETFKRVLIKEEEYDSIIVFYNSVFMQRLKTNILQYASTRPPTLSPIPHIPRSPYKF
notes: domain: RB-M; not shown: glutathione S-transferase (GST) tag of the fusion
